The domain aggregation screens of Martell et al. (2025)

Assay: soluble fraction after stress (log2 fold change); higher = more stays soluble; pooled small domains, quantitative proteomics
Details: stress: 50 degC
In short: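 After stress at 50°C, the amount of each protein still soluble was measured. This was done on pooled custom libraries of small protein domains, using high-throughput quantitative proteomics. The figure given is a base-two log fold change and stands for aggregation propensity, with higher values meaning more protein stays in solution.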

Row | Sequence | soluble fraction (log2)
1 | HMTEDELLAQFEEILDGYVGKPGGLIPALQTAQKLFGYLPKRVLQLISMKLDIPYSEVTGVVSFYSFFTTV | -0.0145
2 | HMKYVDYYATLGVARDADLATITKAYRKLARQTHPDLNQGADNEARFKAAAEAYATLKHPEKRAAYDELGQ | -0.00408
3 | HMLTLAVPNSINMRLDKYLSENIDYLSRSKIQGLINDGKVTINGENEKSSYKLNGDESIVIYYEE | -0.0746
4 | HMHALSVKFSDEAAKTLPYDILSALRDVLALDPRPGYSRDENKIYRFEYADYNISFSVKDKTLTVLSAEK | -0.384
5 | HMNPIDAHVGARVRLRRMLIGMSQEKLGELLGVTFQQIQKYEKGANRIGASRLYEVSRVLDVPVQYFFDDM | -3.47
6 | HMEAYDTMEDRTTLAPGFAKLDKRERYILHLRFFEGLTQSQIAERVGISQMHVSRLIRRSLEKLREEIGD | -0.671
7 | HMNAISIDEAKKIALAKVSGASDQHIRIEADHDDGRLVYEGEIHYGRVEYEFEIDGSTGAIIEWDADRK | -0.341
8 | HMVNVLKNSTVIDLVKNNLSDALIISLIRRAKVDFSLMTDDVIELSGKGVSPAVIMEMRQAMIRQASEIQN | -0.145
9 | HMPAPKPSGALSLKDEPLYAASDSKRRSGTVSGTYYRWDGENVNGRMRITNKQENIGKAGQVTGWITAH | 0.087
10 | HMINYSQKQLIAIQDELSKRFQALENESTKNNVTGFGVGLHYIDIDLIVNTPEKQKEFREKIMDSPAFRFN | -0.839
11 | HMAKNSVLTIELWNSTAFKWRKDTEPYSESMSVDFNRSVRLTDGISIMFSKFGFVPGIQYLIPLQT | -0.0652
12 | HMGNEVMYRQDLSEQELLSFIKKYTGQDEVTHIVVGAPKQRDNTPSPVETKITPFVVQLKAQFPDVNVV | 0.115
13 | HMKDIIVLGAIQAGIKKFDKIQKMTQIEPEELNSILEQLENRGFIQVAEKSGLLGKKIEILVTEKGSNEVD | 0.442
14 | HMDTNPKVIITMDGVNVRSSASTGSDILFIAEKGEEYELISESGDFYKILYEGNKEGYVASWLVETSE | 0.0987
15 | HMQTLQNNLKQIRSRVGLTQGELASRAGISRQAYSTLESGNANPSTEVSLRLAEALNERIESLFFLANQ | -0.275
16 | HMINEVVSLRDVPSFIGKAKRDVIRIAEENNLKIKINGNGYVKEQTPNPGNKYKSNQEIKVFLEPG | 0.0894
17 | HMTTTYTVPKVTGMTLEEAREDPDVVGRFTIVEGEKVTSDTVPVGQIVSQEPAAHRQVGEDGLTITVNIS | 0.289
18 | HMNSIQEQIEKYVYSLAPVTIERYESLKNGDIEDIEFEKLRKSISSKIINEKIDNKKQVAILSHLKKMYSD | 0.0107
19 | HMDENTEQESQTVVVPDVTGKSLSEAASILREAGLDYLAEQTGTVVTKQMPLPDAEVLINTTVLLYTDSE | 0.0118
20 | HMEEITLQEQINFIKDMLLNKEKFHLTDVITKKSKIYVVSLFLALLELIRLEEINFRQTQNFSDIIISRI | -0.138
21 | HMLTGADAEKATAAAQAEFPGGTVLRVETDADGTYEAHVRKADGTEVEVKMDKDFKVTSVEE | 0.0905
22 | HMVVVVELTENEKAVQDVLTKNEGSLEISDLKTKLELSGKQWDKALKGLAKHGITQVAKVDGVVTVSL | -0.303
23 | HMKDASEFLGAKGKTITPLRPTGAAVINGEKVDVLAEGEFIPKNAEIVVIKVEGSKIIVRNANN | 0.143
24 | HMIKNDIGKFIKLYRETHQWSQRELAEHLGVSQRNVSYYEKGERIPPADVLKKLSTLFDVPVDVLLGLK | -0.43
25 | HMISDAEWTIMKALWQSEDKKMTLKEIAEAVADSGWSYTTVRTMVGRLVEKEAIEADESHPRNFRYSAA | -1.23

Row | Sequence | soluble fraction (log2)
26 | HMDLMKKTLTKEMLLIDFMKQQFPDSSTNKLRKMLSSGRVKINNLITHKAKSQLKLGDIFELANKPHD | -0.826
27 | HMATTMSADWRPSEDAVGILVNAEINARFIEDAIPEFVLYWRERGAVHGAWNSKFIEHIRRQWAKFSAS | -2.2
28 | HMSIHPRDKADLGTALSKWKKGALDDKQLELEVARVFMRTYGKKLEGQALNKAVAAWVAALTQSKK | 0.506
29 | HMAGRKMMVMANNLSVRKSANSLSEKLADLSRGDTVEYISSTNGWNKVRYKGQIGYVSSYYLKDTGEEVE | -0.0409
30 | HMSASAIYVRPKDVKEPEEVADYLSGVLELDREKLYKKITDKSQWIALIERKVDNDIAFDIRNKKFKGIEI | -0.0243
31 | HMDDLSPEENKVIGAQVREELARRRLSRQHLADKAKISLSTLEKALTGTRPFTLASVVRIEEALQLQLRK | -0.484
32 | HMEKTKLPNLVDFTYRQAEALLQTHGLKVGKVERVPDVGQTVIKAKYKGKVISWGTELNKGEKIDLVIGKG | 0.189
33 | HMILYDDEYKGPRYRYGLHSRPLSPGAVPKGFIIHSDRPHPDFRHGTLDYPVKLPDDRAANFELIFIGEFD | -1.02
34 | HMEYYIMPVANLHKVVVDGKDMSNLISNNAIAVKANVIDEGQIQIKPGEIIITTPAGVSPEEAVRSP | 0.441
35 | HMHRTMFYLDVDLAEGQSVKMAVHEDDDPGELAARFADEHQLKSRAMEKLRSVIEENVRLHRRNQ | -0.306
36 | HMSREVTVPPLSGLTLRDAARTLAERGLLMEAEGQGAVHRQDPPAGTRVPTGTPVRVFLTLPEQNS | 0.333
37 | HMAAEEAFPGGRIVQNAEENRLQILFDEIPGEDVRAALKSHGFRWSPKNKAWQRQLTQNAEYDARRILGI | -0.00473
38 | HMDEKVTIPSVSGLLLSEAKTKLVDAGLTVETVYDDESKEAKDTVLSQSPLQYGKVDKGTVVTLTVSSGKG | -0.043
39 | HMEDKIEESLEDNISELFAKTKDKYTLINDLYSKGYTVEELSRFSGLPSGEVRLVISLNSKN | 0.0392
40 | HMNMAEQGISLDSEAGKARFVSQALPLLKQLPDGVFKQRMLNQLADRVEVTADFIAQQLAQLKAA | -0.079
41 | HMKALEGMRTVFTLADLATEPVTVEITVLEAFKYTTTLEIVQRPVLREWMTNPSMLIRVYHDASTAE | 0.144
42 | HMARAVSPLEAIPGVGPRRRQQLLKQLGGMQEVARAGVEDLSRVPGISRALAQQIYDAFHGD | -0.149
43 | HMRMNASERQNQIVDLLSQNGVMKIMDIADHFNVSRETIRRDLIILEDDNRIKKWFGGVISAN | -0.461
44 | HMGMTDEELNREEERVVAELEAKDEEELTIYNEEDLTFEETLDLPEGSLMRDRENGMIYLKVLDIWMPY | -0.54
45 | HMIVSEYIIIGGDKKEYGPVSMGEVGEWVQGGRANGDSKIKKVGTEEWGRLRDFPEFSAYLS | -0.00369
46 | HMVKLDDLTGQDKATAEATITNSGLKYSEQQEFSDEVEAGKVIRTDPGAGTSSLKAGDTVTVYVSRGPEN | -0.0778
47 | HMGVISRVITFWQNGFTVDDGPLRAFDDPANMAFMESIGRGEAPAELAPKTRTQRVNINLVQRHEPYSAPK | -0.0726
48 | HMSAAPVGPWALSEFLDAVEKDSVERVTFDDAGKALVAVDADGGRHRVEILPSEGPEILAALRKHSVQFA | 0.0953
49 | HMVVVLPGETIKIDLIREGKDKQALGYLEDGTMIVVDNAKHLIGKNVEIEIDNVLPKEAGRVIFASLHGA | -0.109
50 | HMETKPTELMLEVHELRIGMFVHLDLGWMDHPFPLNRFKISTNSQIEQIKGLRLKQVKVMTALSDPTALS | -2.21
